Laboratory results as given in paper PMC11178655, “Dosimetry and pharmacokinetics of [^177Lu]Lu-satoreotide tetraxetan in patients with progressive neuroendocrine tumours” (European Journal of Nuclear Medicine and Molecular Imaging, 2024).
Where a SMILES comes first, the peptide text is derived from it. Bridges are numbered along the chain shown (N, C = ends). [ ]: non-standard residue; d: D form. The star is where a group is joined. DOTA = O=C(O)CN1CCN(CC(=O)O)CCN(CC(=O)*)CCN(CC(=O)O)CC1; dPhe(4-NHCONH2) = NC(=O)Nc1ccc(C[C@@H](N)C(=O)O)cc1; Dihydroorotyl(S) = O=C1C[C@@H](C(=O)*)NC(=O)N1; Phe(4-Cl) = N[C@@H](Cc1ccc(Cl)cc1)C(=O)O; Phe(4-NH2) = Nc1ccc(C[C@H](N)C(=O)O)cc1

Legend:
[1] = tested on: patients with progressive, SSTR-positive NETs; assay: Blood-based bone marrow dosimetry (part A); assay type: in vivo, human; conditions: cycles 1–3, 11 evaluated patients, median
Procedure: To generate pharmacokinetic data, blood samples (2 mL) were taken at the stop of infusion (0 min) and 5, 30, and 60 min, 4 h, and 1, 2, 3, and 6 days after the end of each [^177Lu]Lu-satoreotide tetraxetan administration. Urine samples were collected over three intervals within 48 h (0–6 h, 6–24 h, and 24–48 h in part A; 0–4 h, 4–24 h, and 24–48 h in part B) following the first treatment cycle of [^177Lu]Lu-satoreotide tetraxetan. Total activity concentrations in whole blood and urine were determined locally, using a gamma counter calibrated for lutetium-177. In two selected study centres, additional blood samples (2 mL) were collected at 1 min, 4 h, and 1, 2, 3, and 6 days after each [^177Lu]Lu-satoreotide tetraxetan administration to evaluate potential radioactive metabolites in plasma.
Patient-specific dosimetry calculations were performed after each treatment cycle in both parts A and B, using the absorbed dose calculation features of the NUKDOS software for image-based dosimetry calculations. The NUKDOS software was chosen as it allowed for an integral approach to organ dosimetry (including image quantification, time-activity curve-fitting and dosimetry calculation). For the bone marrow, both image-based and blood-based calculations were performed in part A [28, 29]. In part B, only image-based bone marrow dosimetry was performed. […]

[2] = tested on: patients with progressive, SSTR-positive NETs; assay: Time-activity curves of whole body and organs (planar whole-body imaging, SPECT/CT); assay type: in vivo, human; conditions: first treatment cycle, parts A and B; median
Procedure: In both parts A and B of the study, patients underwent planar whole-body imaging at 4 h and 1, 2, 3, and 6 days after each [^177Lu]Lu-satoreotide tetraxetan treatment cycle. Patients in part A also underwent single-photon emission computed tomography/computed tomography (SPECT/CT) at 24 h after each [^177Lu]Lu-satoreotide tetraxetan cycle. Those in part B underwent SPECT/CT, immediately before or after planar scintigraphy, at 4 h, and 1, 2, 3, and 6 days after each [^177Lu]Lu-satoreotide tetraxetan administration. Full details of the image acquisition methodology are provided in the Supplementary Information. Reconstruction parameters were set up to produce isotropic voxels of < 5 mm; voxels were continuous throughout the field of view. Anatomic coverage of the acquisition was determined according to the patients’ tumour locations on the planar whole-body scan acquisition with liver, both kidneys and spleen in the same bed position. […] VOIs for the same organs were drawn for all SPECT/CT images acquired in part B. All ROIs/VOIs were then used for activity quantification. […] Full details of the tumour delineation and activity quantification methodology are provided in the Supplementary Information.

[3] = tested on: patients with progressive NETs; conditions: cited from earlier work
Description: A novel radiolabelled SSTR antagonist, [^177Lu]Lu-satoreotide tetraxetan (also known as [^177Lu]^177Lu-SSO110, [^177Lu]^177Lu-IPN01072, [^177Lu]^177Lu-OPS201 or [^177Lu]^177Lu-DOTA-JR11), has recently shown a favourable pharmacokinetic and biodistribution profile, as ... || In the present study, we observed tumour ADCs of 5.0 Gy/GBq after cycle 1 and 4.0 Gy/GBq after cycle 3. These tumour ADCs are consistent with previously reported findings from a direct comparison of [^177Lu]Lu-satoreotide tetraxetan and [^177Lu]Lu-DOTA-TATE in the same tumours and patients in a cross-over design, which reported median tumour dose of [^177Lu]Lu-satoreotide tetraxetan of 7.0 Gy/GBq (range: 4.2–29 Gy/GBq), 3.5 times greater than the median tumour dose of [^177Lu]Lu-DOTA-TATE [22]. However, it should be noted that median tumour dose in this pilot study was calculated from a limi ...

[4] = tested on: patients with progressive, SSTR-positive NETs; conditions: cited from earlier work
Description: Here, we fully explore the biodistribution and dosimetry of [^177Lu]Lu-satoreotide tetraxetan in a dosage-finding, phase I/II study (NCT02592707; registered October 30, 2015) of 40 patients with progressive, SSTR-positive NETs treated with [^177Lu]Lu-satoreotide tetraxetan. A plain language summary of this publication can be found in the Supplementary Information. […] Acute haematological toxicity may be a dose-limiting factor for [^177Lu]Lu-satoreotide tetraxetan, and for ^177Lu-labelled somatostatin analogues in general. There is limited correlation between absorbed radiation doses to the bone marrow and development of haematologic toxicity. Therefore, it is important to carefully monitor hematological parameters during ...

[5] = on average, single mean activity 1.0 GBq vs 1.1 GBq, four patients

C[C@@H](O)[C@@H]1NC(=O)[C@H](CCCCN)NC(=O)[C@@H](Cc2ccc(NC(N)=O)cc2)NC(=O)[C@H](Cc2ccc(NC(=O)[C@@H]3CC(=O)NC(=O)N3)cc2)NC(=O)[C@H](NC(=O)[C@H](Cc2ccc(Cl)cc2)NC(=O)CN2CCN(CC(=O)O)CCN(CC(=O)O)CCN(CC(=O)O)CC2)CSSC[C@@H](C(=O)N[C@H](Cc2ccc(O)cc2)C(N)=O)NC1=O [[^177Lu]Lu-satoreotide tetraxetan, metal not drawn] ({DOTA}-[Phe(4-Cl)][dC][Phe(4-NH2)](Dihydroorotyl(S))[dPhe(4-NHCONH2)]KTC[dY]-NH2; disulfide 2-7 (inferred); C-terminus assumed)
Cumulative absorbed dose, bone marrow, blood-based method [1]: 0.3 Gy | Whole body uptake at 6 days [2]: 11.5 % administered activity | Median tumour dose ([3]; cross-over design, 13 lesions in 4 patients): 7.0 Gy/GBq | Tumour absorbed dose compared with [^177Lu]Lu-DOTA-TATE [3, 5]: three-fold higher | Tumour-to-kidney absorbed dose ratio compared with [^177Lu]Lu-DOTA-TATE [3, 5]: two-fold higher | Median tumour dose relative to [^177Lu]Lu-DOTA-TATE ([3]; same tumours and patients, cross-over): 3.5 times | Grade 3/4 kidney toxicity ([4]; 40 patients): no reported grade 3/4 kidney toxicity | Grade 3/4 treatment-related lymphopenia ([4]; 40 patients): 7.5 % of patients | Disease control rate at 12 months [4]: 94.7%
